The source of these data is US20250333461A1 (BEIJING QL BIOPHARMACEUTICAL, published 2025).

This test addresses human beta-Klotho (human, UniProt Q86Z14 1-1044). The test can be described thus: cell-based or functional assay.

B1: Native FGF21 (ligand)
chain: HPIPDSSPLLQFGGQVRQRYLYTDDAQQTEAHLEIREDGTVGGAADQSPESLLQLKALKPGVIQILGVKTSRFLCQRPDGALYGSLHFDPEACSFRELLLEDGYNVYQSEAHGLPLHLPGNKSPHRDPAPRGPARFLPLPGLPPALPEPPGILAPQPPDVGSSDPLSMVGPSQGRSPSYAS
In the case of B1, the “FGF21 activity (EC50, nM); p-ERK levels, 1% HSA” value came to 0.96 nM.
